Laboratory results taken from PMC4801485.

Molecular target: cyclophilin from Geobacillus kaustophilus (Geobacillus kaustophilus)
Assay: NMR line shape analysis

**Q.** GSFGPDLRAGD [peptide substrate …] was tested. Which koff of the trans isomer (kBA) did it give?
**A.** 720 s⁻¹

**Q.** And the kon of the trans isomer (kAB)?
**A.** 5.2e+06 M⁻¹ s⁻¹
